1 substance from publication PMC3299322 can be followed below.

The target of assay [1] is Tissue factor (residues 1–209), soluble, immobilised on CNBr-activated sepharose-4B. Put plainly: radioligand binding; as a1 but after 1 hour of incubation of 111In-DTPA-rFVIIa in 270 uL human serum at room temperature before the sepharose was added; binding 1 h at room temperature; median of 3.
The target is the same in assay [2]. As to the kind of experiment: radioligand binding; as a1 but in human serum, 0 hour (no incubation in serum before the sepharose was added); binding 1 h at room temperature; median of 3.
Assay [3] has the same target. As to the kind of experiment: radioligand binding; 111In-DTPA-rFVIIa incubated 1 h at room temperature with TF (1–209)-sepharose (50% suspension) in assay buffer (10 mM glycyl-glycine, 150 mM NaCl, 10 mM CaCl2, 0.1% BSA, pH 7.5); beads and filtrate separated in Spin-X filter tubes and counted; median of 3 labellings.

Regarding “111In-DTPA-rFVIIa (111Indium-labelled, DTPA-conjugated recombinant activated coagulation factor VII) (enzyme)”, the binding efficiency (%) in assay [1] came to 36%; in assay [2] it was 39%; in assay [3], 48%.
